Experimental data: publication PMC9482650, “Quantitative fragmentomics allow affinity mapping of interactomes” (Nature Communications, 2022)

T1: RGS12, O14924
T1 sequence (O14924 17-108, limits assumed, looked up): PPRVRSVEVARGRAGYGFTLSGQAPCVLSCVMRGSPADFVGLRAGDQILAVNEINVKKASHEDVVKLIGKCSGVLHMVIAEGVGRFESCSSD

T2: INTU, Q9ULD6
T2 sequence (Q9ULD6 180-273, limits assumed, looked up): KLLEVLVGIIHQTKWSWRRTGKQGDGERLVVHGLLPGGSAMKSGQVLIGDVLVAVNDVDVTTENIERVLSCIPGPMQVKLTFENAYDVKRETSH

T3: LNX2_1, Q8N448
T3 sequence (Q8N448 228-328, limits assumed, looked up): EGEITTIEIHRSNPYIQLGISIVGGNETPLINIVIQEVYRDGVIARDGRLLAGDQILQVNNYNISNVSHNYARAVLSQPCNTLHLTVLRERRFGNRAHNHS


Legend:
Assay in all cases: holdup assay
Set-up in all cases: key: below the threshold = too weak to quantify, mostly under pKd 3.1 to 4
Q96JB8 = settings: plain residues with an end cap or a label only (N-terminal biotin on a linker: ttds)
Q8TEW0 = settings: plain residues with an end cap or a label only (N-terminal biotin on a linker: ttds)
O15021 = settings: plain residues with an end cap or a label only (N-terminal biotin on a linker: ttds)
Q96SB3 = settings: plain residues with an end cap or a label only (N-terminal biotin on a linker: ttds)
Q9H190 = settings: plain residues with an end cap or a label only (N-terminal biotin on a linker: ttds)
RGS12, O14924 = molecular target: T1, RGS12, O14924
O00560 = settings: plain residues with an end cap or a label only (N-terminal biotin on a linker: ttds)
Q96FS4 = settings: plain residues with an end cap or a label only (N-terminal biotin on a linker: ttds)
O00233 = settings: plain residues with an end cap or a label only (N-terminal biotin on a linker: ttds)
Q70Z35 = settings: plain residues with an end cap or a label only (N-terminal biotin on a linker: ttds)
Q9UMS6 = settings: plain residues with an end cap or a label only (N-terminal biotin on a linker: ttds)
Q5TCQ9 = settings: plain residues with an end cap or a label only (N-terminal biotin on a linker: ttds)
O43166 = settings: plain residues with an end cap or a label only (N-terminal biotin on a linker: ttds)
Q9NR12 = settings: plain residues with an end cap or a label only (N-terminal biotin on a linker: ttds)
Q96JY6 = settings: plain residues with an end cap or a label only (N-terminal biotin on a linker: ttds)
Q12923 = settings: plain residues with an end cap or a label only (N-terminal biotin on a linker: ttds)
GIPC3, Q8TF64 = molecular target: GIPC3, Q8TF64
Q8IUC4 = settings: plain residues with an end cap or a label only (N-terminal biotin on a linker: ttds)
Q13009 = settings: plain residues with an end cap or a label only (N-terminal biotin on a linker: ttds)
Q9P227 = settings: plain residues with an end cap or a label only (N-terminal biotin on a linker: ttds)
INTU, Q9ULD6 = molecular target: T2, INTU, Q9ULD6
LNX1_4, Q8TBB1 = molecular target: LNX1_4, Q8TBB1
LNX2_1, Q8N448 = molecular target: T3, LNX2_1, Q8N448
Q8TB45 = settings: plain residues with an end cap or a label only (N-terminal biotin on a linker: ttds)
Q8TDM6 = settings: plain residues with an end cap or a label only (N-terminal biotin on a linker: ttds)
[1] = plain residues with an end cap or a label only (N-terminal biotin on a linker: ttds)
[2] = plain residues with an end cap or a label only (N-terminal biotin on a linker: none)

Sequence of LNX1_4, Q8TBB1 (Q8TBB1 631-726): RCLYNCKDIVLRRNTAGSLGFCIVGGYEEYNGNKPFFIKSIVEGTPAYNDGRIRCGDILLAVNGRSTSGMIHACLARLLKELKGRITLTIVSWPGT
Sequence of GIPC3, Q8TF64 (Q8TF64 107-202): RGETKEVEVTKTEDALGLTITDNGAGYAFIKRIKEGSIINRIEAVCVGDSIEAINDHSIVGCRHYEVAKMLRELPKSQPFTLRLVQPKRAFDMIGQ

| Binder | pKd (Q96JB8) | pKd (Q8TEW0) | pKd (O15021) | pKd (Q9H190) | pKd (RGS12, O14924; [1]) | pKd (O00560) | pKd (Q96FS4) | pKd (O00233) | pKd (Q70Z35) | pKd (Q9UMS6) | pKd (Q5TCQ9) | pKd (O43166) | pKd (Q9NR12) | pKd (Q96JY6) | pKd (Q12923) | pKd (GIPC3, Q8TF64; [1]) | pKd (Q8IUC4) | pKd (Q13009) | pKd (Q9P227) | pKd (INTU, Q9ULD6; [1]) | other results |
| --- | --- | --- | --- | --- | --- | --- | --- | --- | --- | --- | --- | --- | --- | --- | --- | --- | --- | --- | --- | --- | --- |
| HRTCYLVTQL [ASIC3, Q9UHC3] | below the threshold | below the threshold | below the threshold | below the threshold | 4.28 | below the threshold | below the threshold | below the threshold | below the threshold | below the threshold | below the threshold | below the threshold | below the threshold | below the threshold | below the threshold | below the threshold | below the threshold | below the threshold | below the threshold |  | pKd (Q96SB3): below the threshold |
| DSKPPLPPDEWV [MERS-E, K9N5R3] |  |  |  |  |  |  |  |  |  |  |  |  |  |  |  |  |  |  |  |  | pKd (INTU, Q9ULD6; [2]): below the threshold; pKd (RGS12, O14924; [2]): below the threshold; pKd (LNX1_4, Q8TBB1; [2]): below the threshold; pKd (LNX2_1, Q8N448; [2]): 4.21; pKd (GIPC3, Q8TF64; [2]): below the threshold |
| HIVEALETDV [PBK, Q96KB5] | below the threshold | below the threshold | below the threshold | below the threshold | below the threshold | below the threshold | below the threshold | below the threshold | below the threshold | below the threshold | below the threshold | below the threshold | below the threshold | below the threshold | below the threshold | below the threshold | below the threshold | below the threshold | below the threshold | 4.9 | pKd (Q96SB3): below the threshold |
| CLDTSRETDL [KCNA5, P22460] | below the threshold | below the threshold | below the threshold | below the threshold | below the threshold | below the threshold | below the threshold | below the threshold | below the threshold | below the threshold | below the threshold | below the threshold | below the threshold | below the threshold | below the threshold | below the threshold | below the threshold | below the threshold | below the threshold |  | pKd (Q96SB3): below the threshold |
| MERLRVETDV [ARHGEF16, Q5VV41] | below the threshold | below the threshold | below the threshold | below the threshold | below the threshold | below the threshold | below the threshold | below the threshold | below the threshold | below the threshold | below the threshold | below the threshold | below the threshold | below the threshold | below the threshold | below the threshold | below the threshold | below the threshold | below the threshold | 4.32 | pKd (Q96SB3): below the threshold |
| DEDQHTQITKV [PTEN, P60484] |  |  |  |  |  |  |  |  |  |  |  |  |  |  |  |  |  |  |  | below the threshold | pKd (LNX2_1, Q8N448; [1]): below the threshold |
| TGDTLEKFVEGL [CBP, Q92793] | below the threshold |  |  |  |  |  |  |  |  |  |  |  |  |  |  |  |  |  |  | below the threshold | pKd (LNX1_4, Q8TBB1; [1]): 4.65; pKd (LNX2_1, Q8N448; [1]): below the threshold |
| QPGTPTRTAV [MAP2K2, P36507] | below the threshold | below the threshold | below the threshold | below the threshold | below the threshold | below the threshold | below the threshold | below the threshold | below the threshold | below the threshold | below the threshold | below the threshold | below the threshold | below the threshold | below the threshold | below the threshold | below the threshold | below the threshold | below the threshold | below the threshold | pKd (Q96SB3): below the threshold |
| RTRQRNETQV [HPV51-E6, P26554] | below the threshold | below the threshold |  | below the threshold | below the threshold | below the threshold | below the threshold | below the threshold | below the threshold | below the threshold | below the threshold | below the threshold | below the threshold | below the threshold | below the threshold | below the threshold | below the threshold | below the threshold | below the threshold | below the threshold | pKd (Q8TB45): below the threshold; pKd (Q8TDM6): below the threshold |
| SEKHFRETEV [HTLV1-TAX1, P03409] |  |  |  |  |  |  |  |  |  |  |  |  |  |  |  |  |  |  |  | 3.8 | pKd (LNX1_4, Q8TBB1; [1]): below the threshold; pKd (LNX2_1, Q8N448; [1]): below the threshold |
| RRVRKLPSTTL [RPS6KA1, Q15418] |  |  |  |  | 3.56 |  |  |  |  |  |  |  |  |  |  | below the threshold |  |  |  | below the threshold | pKd (LNX1_4, Q8TBB1; [1]): below the threshold; pKd (LNX2_1, Q8N448; [1]): below the threshold |
